Reference: the supplement of paper PMC10724198
± gives the standard deviation of the averaged measurements.

test system: Saccharomyces cerevisiae; assay: protein stability index of tFT-peptide fusion (C-terminal peptide) (PSI (0-1 scale)); higher = more stable (slower turnover); details: genetic background: wild type; temperature: 30 C
Procedure: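 Multiplexed protein stability (MPS) profiling in S. cerevisiae. Random 12-aa peptides (tFT-X12 library) are fused to the C-terminus of a sfGFP-mCherry tandem fluorescent timer, after mCherry and a GGGS linker. Cells are FACS-sorted into 8 mCherry/sfGFP bins and deep-sequenced. The protein stability index (PSI) is the read-weighted bin average, scaled from 0 (unstable) to 1 (stable). Only peptides with >10 reads are reported; cells were grown at 30 °C in SC-His with glucose.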
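Further: PSI is a weighted mean of sequencing reads over stability bins, variants kept only with over 10 reads, mCherry proximal and sfGFP distal, peptide attached via GGGS linker.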

First: LFPSPPPPRSSL
Second: LFQVRLVDLSRI
The protein stability index of the first is higher: 0.7697 ± 0.005 for the first, 0.674 ± 0.049 for the second.

First: LFRLFFVKACRF
Second: LFRLRLFPHPHF
The protein stability index of the first is lower: 0.516 ± 0.0025 for the first, 0.645 ± 0.087 for the second.

First: LFRPGDLVYHSV
Second: LFSLFLRSPLTS
The protein stability index of the first is higher: 0.727 ± 0.026 for the first, 0.664 ± 0.035 for the second.

Compared with LFSRDASSFRFF, LFVFSVCSWPRV is lower in protein stability index: 0.658 ± 0.032 for the first, 0.579 ± 0.04 for the second.

Compared with LFVSCGGCLAMF, LFWARLSLVSLS is lower in protein stability index: 0.687 ± 0.0077 for the first, 0.495 ± 0.041 for the second.

Compared with LFYHLFWLFCSC, LFYRTLPLPWPA is higher in protein stability index: 0.634 ± 0.046 for the first, 0.742 ± 0.02 for the second.

LGAGLIGCALVE and LGAIGFVVVGGL are within error of each other in protein stability index: 0.645 ± 0.036 for the first, 0.622 ± 0.029 for the second.

First: LGALTPSIAGGP
Second: LGCGDSRSMVSL
The protein stability index of the first is lower: 0.64 ± 0.01 for the first, 0.6875 ± 0.0033 for the second.

LGEAGGWSLGFG and LGFDRGGGGAGM are within error of each other in protein stability index: 0.73 ± 0.018 for the first, 0.675 ± 0.062 for the second.

LGFFGGGRGAGG and LGFLRRERLVPS are within error of each other in protein stability index: 0.677 ± 0.016 for the first, 0.697 ± 0.057 for the second.

LGFSCHGRPPCS and LGFVADLFVWSV are within error of each other in protein stability index: 0.699 ± 0.085 for the first, 0.673 ± 0.069 for the second.

LGFVRLLFPSFS and LGFYGSYGRWWV are within error of each other in protein stability index: 0.758 ± 0.022 for the first, 0.779 ± 0.085 for the second.

Compared with LGGCGWVDWWGL, LGGGGGGGACGE is lower in protein stability index: 0.732 ± 0.0096 for the first, 0.655 ± 0.022 for the second.

LGGTGGFRGVRG and LGHITLSERFGS are within error of each other in protein stability index: 0.691 ± 0.022 for the first, 0.705 ± 0.21 for the second.

Going from LGKWWDEECGEI to LGLGERLSINTF, the protein stability index falls from 0.7834 ± 0.0042 to 0.70035 ± 0.00022.

Going from LGLSFYPPLIIS to LGMCGTCQREVG, the protein stability index rises from 0.559 ± 0.0094 to 0.708 ± 0.027.

LGNFSLSARSYM and LGNMRTVEGWGG are within error of each other in protein stability index: 0.727 ± 0.028 for the first, 0.684 ± 0.051 for the second.

LGPDSCRLPLAQ and LGRKWDCLGRYV are within error of each other in protein stability index: 0.746 ± 0.067 for the first, 0.637 ± 0.06 for the second.

LGRPWRECIQIG and LGRTFEEEKYAY are within error of each other in protein stability index: 0.66 ± 0.015 for the first, 0.767 ± 0.13 for the second.

Compared with LGSAAVPGLCRL, LGSCPPPPAPPP is lower in protein stability index: 0.853 ± 0.0092 for the first, 0.638 ± 0.037 for the second.

Going from LGSCRCFAFVSL to LGSFGLASVDGL, the protein stability index rises from 0.659 ± 0.023 to 0.713 ± 0.02.

LGSITDRLLRRR and LGSTPAVKPPCL are within error of each other in protein stability index: 0.772 ± 0.14 for the first, 0.688 ± 0.019 for the second.

First: LGSYSALKIGWG
Second: LGTLLWGGAGRG
The protein stability index of the first is lower: 0.592 ± 0.029 for the first, 0.713 ± 0.01 for the second.

LGVALARCLWGT and LGVGFFLGFRTG are within error of each other in protein stability index: 0.677 ± 0.022 for the first, 0.6508 ± 0.0048 for the second.

LGVGGPSVREGE and LGVGGRWGGPGA are within error of each other in protein stability index: 0.706 ± 0.034 for the first, 0.691 ± 0.059 for the second.

LGVRGSMGPGGG and LGVWVGGRGVRG are within error of each other in protein stability index: 0.683 ± 0.082 for the first, 0.747 ± 0.037 for the second.

Compared with LGWPWGGRGEGL, LGWRLFNDVRRG is higher in protein stability index: 0.606 ± 0.0069 for the first, 0.707 ± 0.013 for the second.

Compared with LGYRCETNYVPD, LHETKRQKKRKR is higher in protein stability index: 0.631 ± 0.023 for the first, 0.7187 ± 0.0062 for the second.

First: LHLPFLPSLPHP
Second: LHPPAPRSPPPR
The protein stability index of the first is higher: 0.727 ± 0.042 for the first, 0.639 ± 0.041 for the second.

LHPPLPRPPYPP and LHPRPPLLPSLP are within error of each other in protein stability index: 0.66 ± 0.029 for the first, 0.608 ± 0.07 for the second.

Going from LHRFTYAEVVWA to LHSFLLSVGRGF, the protein stability index rises from 0.536 ± 0.031 to 0.681 ± 0.015.

LIGRPLPRTFMH and LIKATAYRTNRQ are within error of each other in protein stability index: 0.766 ± 0.074 for the first, 0.745 ± 0.044 for the second.

First: LIKVGRRREGTG
Second: LILFLTTSSPLV
The protein stability index of the first is higher: 0.691 ± 0.059 for the first, 0.608 ± 0.017 for the second.

LILSSGSPAFKT and LIPTPPPHPPSP are within error of each other in protein stability index: 0.66 ± 0.039 for the first, 0.679 ± 0.023 for the second.

First: LISGGLSWGDCW
Second: LISNTGTKWAMI
The protein stability index of the first is higher: 0.743 ± 0.0099 for the first, 0.674 ± 0.053 for the second.

Going from LISSTLRDQKDE to LISVWQLDVRSG, the protein stability index falls from 0.701 ± 0.047 to 0.579 ± 0.0023.

Going from LKALNKFEDTGN to LKAWQRRWEGVR, the protein stability index rises from 0.668 ± 0.018 to 0.752 ± 0.026.

LKCGGVRCGSAN and LKDEERYKRRKV are within error of each other in protein stability index: 0.648 ± 0.061 for the first, 0.709 ± 0.016 for the second.

LKFCSTLLKFAS and LKLLIPPSFSLI are within error of each other in protein stability index: 0.564 ± 0.037 for the first, 0.611 ± 0.027 for the second.

Going from LKMGAWAHTETW to LKQNRIKCPWTL, the protein stability index rises from 0.645 ± 0.033 to 0.728 ± 0.017.

LKTNECIPVTEK gave a protein stability index of 0.609 ± 0.029.
